# The supplement of paper PMC10567573
# ± gives the standard deviation.
# Experiment: protein stability index of a GFP-peptide fusion (GPS, HEK-293T) (PSI 1-6); higher = more stable
# [1] = treatment: DMSO, c terminus: a fixed tail appended
# [2] = treatment: MLN4924 1 uM, 8 h, c terminus: a fixed tail appended
# [3] = treatment: DMSO, c terminus: native
# [4] = treatment: MLN4924 1 uM, 8 h, c terminus: native
# 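Further: 24-mer peptide tiles fused after GFP, lentivirally expressed, FACS-sorted into six equal bins by GFP/DsRed ratio, decoded by Illumina sequencing, PSI is the read-weighted mean bin number.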
Sequence,protein stability index [1],protein stability index [2],protein stability index [3],protein stability index [4]
CTDCGKSFNHNAHLTVHKRIHTGE [ZNF8],4.54 ± 0.21,4.41 ± 0.21,,
FLLRNSQRTVGQLMELCRLYHRAD [EDARADD],2.12 ± 0.24,2.23 ± 0.25,,
AQAHRIHIDPEIQDGSPTTSRRPS [PDLIM4],5.31 ± 0.43,5.34 ± 0.22,,
NSHFSLNVKTLKDGKPFPELVLEQ [PCDHGC5],3.42 ± 0.18,3.76 ± 0.27,,
RSNVDFLETPELTSTMLVPASWWI [NECAB1],2.21 ± 0.43,2.23 ± 0.48,,
CCQWLKPKMRSKEQILELLVLEQF [ZNF449],2.46 ± 0.51,2.46 ± 0.52,,
ERQGNGQQAMSLAILRVIRLVRVF [KCNA3],2.3 ± 0.13,2.56 ± 0.59,,
SATLSWKQPPLSTVPADGYILELD [TRIM9],3.52 ± 0.33,3.63 ± 0.37,,
MAEPSAATQSHSISSSSFGAEPSA [RTN3],5.06 ± 0.096,5.17 ± 0.13,,
GTAPLNQETAEFFLSLDIPIGELY [ACSBG2],1.89 ± 0.26,2.32 ± 0.26,,
RTMAPEKLLKSMPILQGQIDALLE [SNAP91],2.83 ± 0.16,2.89 ± 0.27,,
SYQEEAAMELKVEDPFYWVSPGVL [MOG],3.25 ± 0.5,3.28 ± 0.13,,
PGCGSVPGSGSGPGPGSGPGSGPG [SPAG8],4.96 ± 0.062,4.99 ± 0.25,,
TGFIFQKVGKLAATAVGGGFFLLQ [FUNDC2],2.36 ± 0.21,2.09 ± 0.51,,
ISEEIQMSTKESDFLCLLGVSYTF [MIA2],2.4 ± 0.45,2.76 ± 0.92,,
MTTHPLTNNNIKQRLIKKVQEAVL [GOLPH3],2.79 ± 0.65,2.65 ± 0.59,,
VSPRRIFANGHTYHINSISVNSDC [PPP2R2C],2.67 ± 0.27,2.87 ± 0.19,,
EAYIAKQKRLKSKLLDHDNVKYLK [GDAP1],3.15 ± 0.32,3.45 ± 0.55,,
PLDSKENLENPMRRIHSLPQKLLG [CDC25A],3.29 ± 0.32,3.79 ± 0.16,,
VQEAVLDKWVNDPHRMDRRLLALI [GOLPH3],2.29 ± 0.18,2.52 ± 0.17,,
SRNEFDRTIAETEAAYLKILESSQ [SSNA1],3.95 ± 0.22,4.04 ± 0.34,,
RRTPPGQQRPHPRSHSREPRAERK [ELOA2],5.332 ± 0.008,5.58 ± 0.17,,
LLDALSPEQLVLTLLEAEPPHVLI [ESR2],2.55 ± 0.57,2.08 ± 0.18,,

Sequence,protein stability index [1],protein stability index [2],protein stability index [3],protein stability index [4]
SYWEDLRKQARQLENELDLKLVSF [GOSR1],2.37 ± 0.24,2.57 ± 0.2,,
IQSKLGIVSLLLGTIHALIFAWNK [STEAP1],2.35 ± 0.31,2.22 ± 0.31,,
ARVKAFNKTGVSPYSKTLVLQTSE [TRIM9],3.2 ± 0.28,3.34 ± 0.21,,
DPSNRSFFSEIISSVSDVKFSHSG [PPP2R2C],3.43 ± 0.25,3.44 ± 0.29,,
LLPVQVVTEHPLELIRVEVEILDL [PCDHGC5],3.02 ± 0.66,3.05 ± 0.85,,
GAASLPSELIVHIFSFLPAPDRLR [FBXO33],2.6 ± 0.74,2.74 ± 0.39,,
FVLAEDGRRCKKCTEGPIDLVFVI [MATN2],3.06 ± 0.44,2.5 ± 0.31,,
LLQNEFVGFMWRQRGRVISLWERL [MCOLN1],2.7 ± 0.19,2.68 ± 0.26,,
AWEKLLAAFPNLANLSRTQLLHLG [KLHDC10],2.06 ± 0.27,2.1 ± 0.11,,
AERYGLSGSDVLDNVAYARAFNTD [RAD51],3.99 ± 0.2,4.07 ± 0.32,,
GATAASETLSGHGPLAQPLTLQVL [ADAMTS4],3.28 ± 0.29,3.19 ± 0.36,,
LLLLYFMQVIAIVLYLMMPIVNIS [PHTF1],3.15 ± 0.42,3.06 ± 0.52,,
EAKNYLLLPQERPLMQGPRTRPRK [KLHL20],4.25 ± 0.097,4.17 ± 0.058,,
LPPEKGREVAKELGIPYYETSVVA [RHOBTB2],3.55 ± 0.24,3.55 ± 0.18,,
QLIYNHITTRVNSEQEHFLIVPFG [ADD1],2.41 ± 0.27,2.26 ± 0.08,,
GTTEAATQDGKEQPELPCAMAMGT [PXN],5.48 ± 0.13,5.45 ± 0.22,,
SKKEGKRQGPKEPPRKSGSFHSSG [PBXIP1],4.98 ± 0.32,5.2 ± 0.2,,
NGTGDSNDFWRIEVVNRKFGNRIK [POMT2],3.25 ± 0.26,3.46 ± 0.41,,
EKKRKEEEERRRREEEERERLQKE [ACBD3],5.45 ± 0.36,5.49 ± 0.25,,
GEPGAAAPAMYDDESAIDFSAYID [CEBPD],5.28 ± 0.21,5.08 ± 0.29,,
TTFQDVYFVSESFEDAKEKMREFT [TPH1],3.61 ± 0.2,3.58 ± 0.29,,
QRLEEQERRHREEKERRKKQQWEI [RSPH3],4.45 ± 0.28,4.54 ± 0.31,,
MLPGVLAGVSAEESWAGPQPLETL [SCNN1D],3.38 ± 0.34,3.53 ± 0.37,,

Sequence,protein stability index [1],protein stability index [2],protein stability index [3],protein stability index [4]
LGWNSTERSLRLQARYHDTPYKPP [MYORG],2.88 ± 0.3,3.2 ± 0.22,,
CTAKCGERSVVTRDIRCSEDEKLC [ADAMTSL2],4.63 ± 0.38,4.61 ± 0.18,,
GSPSRPLSRRQLCPLTPGPGKALG [C2CD2L],3.81 ± 0.35,4.11 ± 0.11,,
AALSERGQAEEELIKAKSQARLEE [LRRC45],5.28 ± 0.55,5.39 ± 0.46,,
LYYFRLAARSPQGLGASTAEISAR [PTPRD],2.34 ± 0.42,2.33 ± 0.39,,
LLEDARRKGMPFAQWDGPTVVSWL [PPFIA4],2.11 ± 0.15,2.01 ± 0.33,,
IDGQGRPRTSQSEETRVWHRRDGK [CAMK2B],5.2 ± 0.2,5.24 ± 0.11,,
PARTVLVGSLSWLRKQLQPTHCKY,2.38 ± 0.43,2.19 ± 0.098,,
LGKLIPRHQSIFKSNGFFHGISIP [CDKL4],2.17 ± 0.052,2.23 ± 0.41,,
MMHGGSYSLTTSSTHKRSSLRKVK [RAB40B],4.15 ± 0.25,4.35 ± 0.15,,
SDKETDIDDRYGDLDSRTDSDIPE [CDS1],5.54 ± 0.31,5.43 ± 0.27,,
ELIFSARVLDGKEAKAVGLISHVL [AUH],2.58 ± 0.92,2.18 ± 0.25,,
IEANFPRRVLPCIPSEEWPNPPTL [FAF2],2.9 ± 0.28,3.05 ± 0.22,,
LLKPHSYGRFIRWLNKEKGIFKIE [SPDEF],2.49 ± 0.66,2.4 ± 0.46,,
QGIYEEYEDIRRENPVGTFHCSMS [PTPN9],3.84 ± 0.28,3.98 ± 0.26,,
NQHDTEMKYYIVHLKRHFMFRNHL [DYRK1B],2.45 ± 0.23,2.3 ± 0.15,,
ALLWLSCSIALLRALATSNARAQQ [GNAS],3.21 ± 0.51,2.99 ± 0.25,,
TISFLGCAIQMFSFLFLGCSHSFL [OR10K2],3.14 ± 0.41,3.6 ± 0.52,,
GYSPNGRDANGWTLLHFSAARGKE [ASB7],2.91 ± 0.47,2.94 ± 0.19,,
SESNSATVEEPPTDPIPEDEKKE [SMARCE1],,,5.58 ± 0.47,5.41 ± 0.1
WQYLSGGKVKLQQNPGKFDELDMS [TBC1D10A],3.16 ± 0.32,3.35 ± 0.26,,
SSTPDSTEGGNDDSDFRELHTARE [RTN2],5.41 ± 0.29,5.53 ± 0.21,,
SCTPRMNRRMVGPDVIPLPHIYGA [FAM189A2],2.23 ± 0.22,2.27 ± 0.2,,

Sequence,protein stability index [1],protein stability index [2],protein stability index [3],protein stability index [4]
SPFSVHPKTGRISVPIDLQKVDQF [PRIM1],3.18 ± 0.59,3.42 ± 0.37,,
HCRKCGKAVCGKCSSKRSSIPLMG [WDFY2],3.94 ± 0.21,3.93 ± 0.17,,
LGRGLVGGQEEASQEAGLPAGAGP [SEPHS2],5.23 ± 0.47,4.75 ± 0.65,,
DGNKIFLCHCGKAFSHKSMRDRHV [ZBTB22],2.39 ± 0.4,2.61 ± 0.56,,
LTSMRRLSSIKRDTNSIAKAIKAR [STX11],3.4 ± 0.26,3.64 ± 0.34,,
GWSLGRWTHDGIDINNNFPDLNTL [CPXM2],2.01 ± 0.085,2.34 ± 0.091,,
AGTAGHPPSGSQPLTSTQGLEHAA [FBF1],4.84 ± 0.11,4.89 ± 0.35,,
LPQEHSQIYHCTKRKEEECSTTDH [TBX5],5.39 ± 0.21,5.49 ± 0.11,,
PPAQGRVSRRLSPRKVSTCTDHEL [TRIM9],5.031 ± 0.046,4.87 ± 0.35,,
IHLSAPCIYSEVMEALDLQPGLSF [PCMTD2],2.23 ± 0.23,1.96 ± 0.41,,
SGVCLFAVFIALLPILGHRDYKIQ [PTGFR],3.6 ± 0.45,3.37 ± 0.12,,
QNLLGFTPEELHAILGVQPDTED [ETS2],,,4.78 ± 0.39,4.85 ± 0.34
AEFQSLFSLLEELKEGMLMKIKQD [FSD1],2.21 ± 0.36,2.33 ± 0.2,,
DAGGWVLIDRSGRHFGTILNYLRD [KCTD13],2.33 ± 0.25,2.08 ± 0.42,,
LPPVAVRSLQDLARIAIRGTIKKI [PCMTD2],3.2 ± 0.34,3.12 ± 0.22,,
LEVERQENEQRRLFIQKEEQLQQI [MNAT1],4.6 ± 0.36,4.64 ± 0.17,,
SEEELAAATTSKEQEPIGTDLDAV [MYBL2],5.71 ± 0.19,5.58 ± 0.25,,
KLQVSQQEDITKSLLVTELGSSRT [IMPA1],4.18 ± 0.28,4.28 ± 0.25,,
ESYTKMCDPGMTAFEPEALGNLVE [CAMK2A],4.1 ± 0.31,4.16 ± 0.33,,
PGMPPPVPRPGIPPMTQAQAVSAP [ZNF207],4.94 ± 0.15,4.86 ± 0.19,,
